Test results as given in publication PMC12709181.

Experiments:
[1] = biological target: proliferating cell nuclear antigen (PCNA) (yeast) (UniProt P15873)
[2] = biological target: proliferating cell nuclear antigen (PCNA) (yeast) (UniProt P15873); remark: listed apart in the source

proliferating cell nuclear antigen (PCNA) (yeast), sequence (P15873 whole entry): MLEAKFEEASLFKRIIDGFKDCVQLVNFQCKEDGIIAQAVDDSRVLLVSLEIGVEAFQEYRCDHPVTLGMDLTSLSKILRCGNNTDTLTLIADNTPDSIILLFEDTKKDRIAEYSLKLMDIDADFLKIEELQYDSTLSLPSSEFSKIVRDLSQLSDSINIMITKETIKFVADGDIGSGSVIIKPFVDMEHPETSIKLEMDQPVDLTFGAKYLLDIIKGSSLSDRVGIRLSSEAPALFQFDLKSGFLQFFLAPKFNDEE

Substance “four-subunit yeast Pol ε with the P-domain mutation KKRL736-739AAAA in Pol2 (P3) (from UniProt P21951 1-2222; P24482 1-689; P27344 1-201; Q04603 1-196) (complex)” has a holoenzyme assay: product length of DNA synthesis on single-primed M13mp18 ssDNA with PCNA loaded by RFC (10 and 20 min); much less stimulation by PCNA [1] of 400 bp and a processivity assay under single-hit conditions: product length on primed M13mp18 ssDNA upon addition of PCNA (0, 5, 10, 20 min) [2] of 85 nts.
“wild-type four-subunit yeast DNA polymerase ε (Pol2, Dpb2, Dpb3, Dpb4) (from UniProt P21951 1-2222; P24482 1-689; P27344 1-201; Q04603 1-196) (complex)” showed a processivity assay under single-hit conditions: product length on primed M13mp18 ssDNA upon addition of PCNA (0, 5, 10, 20 min) [2] of 300 nts.
“four-subunit yeast Pol ε with the P-domain mutations D695A, E696A, N698A, K745A in Pol2 (DENK) (from UniProt P21951 1-2222; P24482 1-689; P27344 1-201; Q04603 1-196) (complex)” gave a holoenzyme assay: product length of DNA synthesis on single-primed M13mp18 ssDNA with PCNA loaded by RFC (10 and 20 min); stimulated by PCNA, although to a lesser extent than wild-type Pol ε [1] of 3000 bp and a processivity assay under single-hit conditions: product length on primed M13mp18 ssDNA upon addition of PCNA (0, 5, 10, 20 min); increase comparable to wild type [2] of 300 nts.
